Experimental findings from the DeepSol protein solubility set are described below.

The nature of the data set: soluble on expression in E. coli; label from the status in PepcDB or PDB records.
Consider “MAHHHHHHMSAEQQRLKKMHCEAVTLAEMKQWLGLPLTTAASSSSAAPAAAAVAAAPKSPVEEAVGRDVYDMYGLSMTAVDAYLLRYLRSKNLVIEDAVAKLRRRRAFERTLPMISVTTTTVAALRSGAFHLLDHDLEGRPVLYINVATFTLPTLELDEAQRLLIILLEFMQARCLLKNNEKVAAMQRRRRQHVDATAAASSFANGGRENNGGAAAPAHGAQDVDKETVSDLQEFALLVNEERVPWMMHASFLKNYSTLLSILPKYYPLLLGSVLVLGASLEIRTAIKACVGSSSEDVRNSVQMIEKADLPRYMDASTIPVELGGHKQIVGSAMNFSETVLRHWFTLTSQIEDECVGSDGGIADSKVPTTISAAGAANGHREDGGGAETSHSPPRPLYVPPPPLGMTQRHISRQRHAVELQHLSSSVVGTITGPGSPGPMRPCKYGGSSARNGKHSLMSSAAAANRSTAVTTPHGTPTSQKDQAAATVTLGAGRAEDVTDDGVCSALSGADERDDYAENEGGGAGMHTRTNSGVPTYQLYTAASSLAGSLAVEGEMHLSGLGASHNRHHQGASLYSVASATISREEAAHFADHPDDAVVALRQERRRRQRAEQALYFRDLGVTLDMRNASIIEKELAAIHQDLNVLVAEILVKAEAARKRQKAPPTLKQLLDLTLTAFESVTCTPSSVPAMALAEPAQREAASSSCCSFM”, for which the “soluble on expression in E. coli” value was “not soluble”.

For “MSLTKFVSAPLICGLALLGALSAAHAQTGIPALPPIAQPLPVPAPAPVTPPAPTVPVPQEPAPVPQPPMPQPSVPQTPAPQKPVTPRPAPAPSRAPLLIQARANVPALVAGKKTTVPVLKTLTIPAERAAQLRQRGEVSASLQADLDTFLKSLAAPRDARFEQQDDGQWAVVQPNGLKVDAQATRAAVAKVLRDPRGVSANVVVTGQVAPQRTLDFFASRGITTFLATGFTSYYGSSPERVKNIHVGAQNFKDRLFEGDVFSFNKFIGPVSERNGYVPGLVIAGDQTASGVGGGICQVSTTVFRTLYGAGLGIVQRQNHSYQVFYYDPQGLDATIYQPQLDLKFANTTGGPIWFQTEWDDQEATLTITAFGQARDYQVQVDAPKTLKTVAPPKDRLIPDASLPAGQRKQVDWAAPGATIEVTRRFTRGGKTFKQDTLRSVYRPWPNIFRVGTKKEGGSHHHHHH”, the “soluble on expression in E. coli” value is “soluble”.

For “MKSIGTQILQTERLILRRFVESDAEAMFQNWASSAENLTYVTWDPHPDVEITRNSICNWVASYTNLNYYKWAICLKENPEQVIGDISIVKIDEADLSCEIGYVLGKAYWGNGMMTETLKAILDFCFTQAGFQKVRARYASLNPASGRVMEKAGMSYLQTIVNGVERKGYLADLIYYGISREEC”, the “soluble on expression in E. coli” value is reported as “not soluble”.

For “MMSMKIFETTAPHPEASLLTAFSKNALDRFAEKRTEECVAEALKVDGTHIFAFSGNRLVLKHDEQVIDPLFSAYELAELQPDFDNAVLLGYRETGEPRIAVPVAVAEDQLASHYKLADARTLYRDHLLDEELLSEVAQAVSLTHWNADNRFCGRCGGTMEQRIGGYKRICASCSHTIFPRTDPVVIMMTIDIERDLCLLGRGAHFASGMYSCLAGFVEPGETIEQAVRRETHEESGVEIGRVRYHASQPWPMPHTLMIGCYAEALSSDIARDEIELEDCRWFTREEVAKMLEAPAGEGFSAPPIGAIAHRLMRDWVEWPE”, the “soluble on expression in E. coli” value is given as “soluble”.

For the sequence “MRIHDIDPDNRPRERFLRSGKESLSPAELLALILRSGTAGLNIIDTCNKLISEHGLERLADLSIQELQKTPGIGEAKAMQIAAIFELQRRLHFARNMNLKVKGARDVFEYMKGRIPDETKEHLFVLFLSTKNQILRHETITIGTLTASLIHPREIFKAAIRESAHSIILVHNHPSGDVQPSNADKQVTSILKKAGDLLQIELLDHVIVGNNDWFSFRDHALL”, the “soluble on expression in E. coli” value is given as “not soluble”.

Take “MVFRKYRAVKQWGKMDTRIFKEIYNSRNKRKMPAFEVPDAVKALGVPVFEPNEIFQLSNRKNLVEQAAKEHMENELKFTEPPQQHPLQKSHPAYIFEAAEPMSDGIAQAAVLTRSVVATGGLPDTILLNSAAKLEIDEEMVKDAILHGERYNPSLEKLPARFDPVMFWIRHPRLHGTPVIKKNNIILNNLLRHVVLGGLRTQALKQNFQFSTKILQKNSNFLWKIQKNLIFSDFRLKLKNFCRVNRDSPLSVYVSGGQYFSKNALVLRAQPHLTVQSADSTVTMPWAGPIDVKAVWRIFTKMFSFSSFSYQNSSIFHQKLSKIFSAEPLPDIYPISPVIDFSMDTIYNDDVLLTRRSQQQKTHIHSILWSREQDQKYPWTSEQNMANAILTTYAAAVAEATRNGATTELEKPLLVRGVQLVNGRLDLVAMQLNTLKPTSEAGNNDEKNIVWIEKGLRLYKPTPYYEQMDTVEKLDMTVFHKFVALMLGFGAPHAH”: the “soluble on expression in E. coli” value is listed as “not soluble”.

Take “MKLNIRAQTAQNQHNNSPIVLVHGLFGSLDNLGVLARDLVNDHNIIQVDMRNHGLSPRDPVMNYPAMAQDLVDTLDAQQIDKATFIGHSMGGKAVMALTALASDRIDKLVAIDIAPVDYHVRRHDEIFAAINAVSESDAQTRQQAAAIMRQHLNEEGVIQFLLKSFVDGEWRFNVPVLWDQYPHIVGWEKIPAWDHPALFIPGGNSPYVSEQYRDDLLAQFPQARAHVIAGAGHWVHAEKPDAVLRAIRRYLND”: the “soluble on expression in E. coli” value was “not soluble”.

As for “MGHHHHHHSHMSGTEEAILGGRDSHPAAGGGSVLCFGQCQYTAEEYQAIQKALRQRLGPEYISSRMAGGGQKVCYIEGHRVINLANEMFGYNGWAHSITQQNVDFVDLNNGKFYVGVCAFVRVQLKVRGWSRPAARKDQWVVGEGWFIS”, the “soluble on expression in E. coli” value is recorded as “not soluble”.

Turning to “MSLSQQQKQVQKLAMTQQLQQSIQILQFNTEELAAFVEAKALENPLIDLQVDTQYTTDFPITSRSYTNQDEENNYMNQIPDYHLSLFESLIDQIHLNYRDTYLRTLVLFLVEYIDVNGYLTISLEEAAVKTEASAIQMLDALTLLQQLDPAGVGARNLQECLMLQTERDDTAPNLAYILLEEEFDALVSRKWGPLAKKFGIELAEIQLIFDYIQTLSPAPGNIFDATEELYIRPDLTVRIKEDRIVVISNKAGRPTLNFQENYFKRMQETDDKEVQEYIKDKKNEFEWLERAVNQRGDTILRVGQEIVRRQEAFFLEADRPLKPMTLKEIADALSIHESTVSRAVNGKYLETTFGVFELRSFFSTSILSSEEDGEDVSTTMVKKQLQKLIDQEVKSKPLSDQKLVERLKDSGMEISRRTVAKYREALGIPSSSKRKRYEEGHHHHHH”, the “soluble on expression in E. coli” value is given as “soluble”.

In the case of “RRSPPADAIPKSKKVKVSHRSHSTEPGLVLTLGQGDVGQLGLGENVMERKKPALVSIPEDVVQAEAGGMHTVCLSKSGQVYSFGCNDEGALGRDTSVEGSEMVPGKVELQEKVVQVSAGDSHTAALTDDGRVFLWGSFRDNNGVIGLLEPMKKSMVPVQVQLDVPVVKVASGNDHLVMLTADGDLYTLGCGEQGQLGRVPELFANRGGRQGLERLLVPKCVMLKSRGSRGHVRFQDAFCGAYFTFAISHEGHVYGFGLSNYHQLGTPGTESCFIPQNLTSFKNSTKSWVGFSGGQHHTVCMDSEGKAYSLGRAEYGRLGLGEGAEEKSIPTLISRLPAVSSVACGASVGYAVTKDGRVFAWGMGTNYQLGTGQDEDAWSPVEMMGKQLENRVVLSVSSGGQHTVLLVKDKEQS”, the “soluble on expression in E. coli” value is “soluble”.

As for “APSCPAGSLCTYSGTGLSGARTVIPASDMEKAGTDGVKLPASARSFANGTHFTLRYGPARKVTCVRFPCYQYATVGKVAPGAQLRSLPSPGATVTVGQDLGD”, the “soluble on expression in E. coli” value is “soluble”.

As for “MGSDKIHHHHHHMAVEKSTSIKNNSIKTVNVAVAVIHYQNQYLLGFRAASQHQGNRYEFVGGKIDAHETAKQALIREVAEETGINIANNTAVKLGRLHHDYGDKQVCLQVYRIEVTAQQYAQYKNLSCGLEGQKLTWVDKAKLLAGHYDLPAANKTILVWLQLPVQITITYPLAHFNGFPNPRAAWSQYHHEHIAADALVYMRIKVAGAEDSIERLLQLRSDIKAIAPDHLHTDKADNAVINRQIIAGHLTQTQLMQWSSSVAKESMSYSALSTNLPLIVSCHDADSINAANQLAFFRLQQQLPPVIGIFLAPVECTQTHPDTPPLGWEAWSKLAELADMPVIGLGGLSPVMSEQAMLHGGIAVAGIRQFLK”, the “soluble on expression in E. coli” value is “not soluble”.

Consider “MIAATPQAMDKQPSAKNQPCGIDKEVGTIANTVITLMPKYIDTNVIVLRHSCANRPPWRNAATNHANNPRNPSKNSTDITTPIDAAISGTACPFIRFSNSAIN”, for which the “soluble on expression in E. coli” value was “not soluble”.

Turning to “MGSDKIHHHHHHMDIENMKAFNKVAELKSISAAANELHHLQSNMSNKIKNIEKQFQTQLFFRHSNGVELTKEGEKIYQQFKKMILLWEETIDIINNEEETISIGITQSSLPMEFNTIIKEFYQQFPNKKLSIVSGSTSELIPKIANRELTIAYVAELEKENLFQDSQIISQTLSWDKLVFAGNTAGKSVQKILAEERLYVFSKQCYSYRALAALINDFNIPNVSISEINIPETLVEICNNELGVGIIPESIALNYHFLNYETLPTEYAALRKTLIYHADHTISNGEKWLIEKSKPAFKS”, the “soluble on expression in E. coli” value is reported as “not soluble”.

As to “GSSGSSGMQLEIQVALNFIISYLYNKLPRRRVNIFGEELERLLKKKYEGHWYPEKPYKGSGFRCIHIGEKVDPVIEQASKESGLDIDDVRGNLPQDLSVWIDPFEVSYQIGEKGPVKVLYVDDNSGPSSG”, the “soluble on expression in E. coli” value is “soluble”.

For “MSYSPPQPPQRQYSSTLNVDCVDGVYRSQQQVSPLTKQVNHLAYEIPKNKYANNPWNYAPEFLKVFGDLRVHIGGKAVFDCVLLGSPRPRVCWLFNEDKLRFSDVIIEDTADVCRLTIPYVQMHHFGTFTVLCENEVGRATAQAELLPLYE”, the “soluble on expression in E. coli” value is on record as “not soluble”.

On to “MGSDKIHHHHHHMADAETIRSYDQLAREQAAFQRHLQPTAIYRLVETFFHPGRPTIDIGSGSGRDVAWLNQHGYQAIGLEPSAGMIAEARAAYAGIEIRQGALPDLAGIADASFDNVLCVAVLMHLPAAELIGAVINLARILRPGGRLIVSYRTPPPEGERAHDGRLYTVIPPARLMLLLESSGLQILFSEDLPDPHRPSIRWFNMVAEKSDRDVSRGLERVGSVLAHDRKTATYKLALLRALCIIARNAFNLVEWSSDVVYVLLRAIATQWLIFYWPLLTSSEFIAQIRGEHPLSPKPIAFRPAITSLAKQLGGAAGLYNVLRILEEDPHRYDDILKLIANTIRKGPVTYSGSIHSPIFSYRPGKSDTFGWVAVPIDIWLDICRFNHWIEDSIVLRWAYLTDELNRTADPGRYLSLLVAKPLHERDTQEVRQALNRSPELFCVWTGQRLGHGYEVDHVIPYSVWGNNDLWNLLPAHPRINQTKRDALPARSILLARREAIIDYWQRYAQIDVFQPRFAVQIHRALGCNLRHADWPKLAFAGLEEVVERTAIVRGLPRWSP”, for which the “soluble on expression in E. coli” value is “not soluble”.

In the case of “MNERGMLVDPRFDAFFKLEQIDDYKYDGADTSPSTSNGLPETSNGGRLICDVCGDVAFGKHYGINACNGCKGFFRRSVWSRRQYSCRFGGDCPVVKEHRNVCRSCRLKKCFEVGMNPDSVQNERDRNAKNGGMGGPMSSPTQSSLCKELTISNGQIKRKRLRPETVEKTTQTDGKLEINDDFDFENMQQNPTPPGLLPLKIERISTPPSDLPVPMDFSIHSAVLDIEQKVFYNCPVAVDNSINATKTPITLPFEVVFRQPHLVCNRYPMRFSNTRVLTPEDLIDGWRRHFTYYSDWCHAMDEFKALSPEDQIVLAKKKIILHGWLVHAYYSYKSGCNGICFANGAAHLPEGGHPSITEFYKECMPRYLNYVIYPMHNFQMDDAEMVLIKCIMFFSSESGLSAAGRQIVSAAREKYLSALYNYGRANKCTTSAQATLRIAKFMIMLSAITSLTHLMNEGVHVTSLFNIIEFDELIQATHKTTPPQHSPPAPMG”, the “soluble on expression in E. coli” value is “not soluble”.

On to “MSAEAAAVEVQANEAPIVAPIMYKVESSDGQVYEISDEAVKQSNTLSNLISTCVANDVASMDPIPITNVTGNIMKMVIEWCEKHKGETLPVEDDSVPKNITVPEWDTNFLKIDNDVLFDLIVASNFLDVPGLMSYACKMVANMAIGKSPDEMRVLFAIPTDEEDEAAEKAAKEKAEAEKKAITEKDAAEPSTSK”, for which the “soluble on expression in E. coli” value was “soluble”.
